# Measured values: the RNAGym collection of RNA variant scans (doi:10.1073/pnas.2313332121)
# Fewer inactive variants are shown than the library holds.
# B1: TPR 5TU (parent)
# chain: GGAUCUUCUCGAUCUAACAAAAAAGACAAAUCUGCCACAAAGCUUGAGAGCAUCUUCGGAUGCAGAGGCGGCAGCCUUCGGUGGCGCGAUAGCGCCAACGUUCUCAACUAUGACACGCAAAACGCGUGCUCCGUUGAAUGGAGUUUAUCAUG
# Variants of: B1
# Assay: polymerase ribozyme fitness, log enrichment relative to wild type (log ratio); higher = more active; in vitro selection for triplet polymerase activity
# Outline: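 For each subunit of a heterodimeric triplet polymerase ribozyme, a mutant library was built by PCR and transcribed, then taken through a single in vitro selection round in triplicate. Selection involved annealing to a biotinylated primer, the partner subunit and triplets, incubation frozen at −7 °C, gel excision of extended constructs, capture on streptavidin beads and RT-PCR. Genotypes were retained after Illumina sequencing of inputs and outputs only with ≥10 input reads and ≥1 read in each output. Fitness is defined as the logarithm of a genotype's enrichment relative to wild-type enrichment, using inverse-variance-weighted averages across replicates, with the logarithm taken to base 2.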
row,Variant,polymerase ribozyme fitness (log ratio)
1,GGAUCUUCUCGAUCUAACAAAAAAGACAAUUCUGCCACAAAGCUUGAGAGCAUCUUCGGAUGCAGAGGCGGCUUCGUUCGGUGGCGCGAGAGCGCCAACGUUCUCAACUAUGACACGCAAAACGCGUGCUCCGUUGAACGGAGUUUAUCAUG [A30U A73U G74U C76G U90G U139C],≤ -4.2
2,GGAUCUUCUCGAUCUAACAAAAAAGACAAAUCUGCCACAAAGCUUGAGAGCAUCUUCGGAUGCAGAGGGGGCAGCCUUCGGUGGUGCGAUAGCGCCAACGGUCUCAACUAUGACACGCAAAACGCGUGCUCCGUUGAAUGGAGUUUAUCAUG [C69G C85U U101G],-1.25
3,GGAUCUUCUCGAUCUAACAAAAAAGACAAAUCUGCCACAAAGAUUGAGAGCAUCUUCGGAUGCAGAGGCGGCGGCCUUCGGUAGCGCGUCAGCGCCAACGUUCUCAACUAUGACACGCAAAACGCGUGCUCCGUUCAAUGCAGUUUAUCAUG [C43A A73G G83A A89U U90C G136C G141C],≤ -4.2
4,GGAUCUUCUCGAUCUAACAGCAAAGACAAAUCUGCCACAAAGCUUGAGAGCAUCUUCGGAUGCAGAGGCGGCAGCCUUCGGUGUCGCGAUAGCGGCAACGUUCUCAACUAUGACACUCAAAACGCGUGCUCCGUUGAAUGGAGUUUAUCAUG [A20G A21C G84U C95G G117U],-0.439
5,GGAUCUUCUCGAUCUAACAAAAAAGACAAAUCUGCCACAAAGCUUGAGAGCAUCUUGGGAUGCAGAGGCGGCAGCAUUCGGUGGCGCGAUAGCGUCAACGUUCUCAACUAUGACACGCAAAACGCGUGGUCCGUUGCAUGGAGGUUAUCAUG [C57G C76A C95U C129G A137C U144G],≤ -4.2
6,GGAUCUUCUCGAUCUAACAAAAAAGACAAAUCUGCCACAAAGCUUGAGAGCAUCUUCGGAUGCAGAGGCGGCAGCCUUCGGUGGCGCGAUAUCGCCAACGUUCUCAACUAUGACCCGCUAAACGCGUGCUCCGUUGAAUCGAGUUUAUCAUG [G92U A115C A119U G140C],≤ -4.2
7,GGAUCUUCUCGAUCUAACAUAAAAGACAAAGCUGCCACAAAGCUUGAGAGCAUCAUCGGAUGCAGAGGCGGCGGCCUUCGGUGGGGGGAUAGCGCCAACGUUCUCAACUAUGACACGCAAAACGCGUGCUCCGUCGAAUGGAGUUUACCAUG [A20U U31G U55A A73G C85G C87G U135C U148C],≤ -4.2
8,GGAUCUUCUCGAUCUAACAAAAAAGACAAAUCUGCCACAAAGCUUGAGAGCAUCUUCGGAUGCAGAGGCGGCAGCCUUCGGUGGCGCGAUAGCGCCAACGUUCUCAACUAUGACACGCAAAACGCGUGCUCCGUAGAAUGGAGUUUAUUAUG [U135A C149U],-0.66
9,GGAUCUUCUCGAUCUAACAAAAACGACAAAUCUGCCACAAAGCUUGAGAGCAUCUUCGGAUGCAGAGGCGGCAGCCUUCGGUGGCGCGAUAGCGCCAUCGUUCUCAACUAUGACACGCAAAACGCGUGCUCCGUUGAAUGGAGUUUAUCAUG [A24C A98U],≤ -4.2
10,GGAUCUUCUCGAUCUAACAAAAAAGACAAAUCUGCCACCAAGCUUGAGAGCAUCUUCGGAUGCAGAGGCGGCAGCCUUCGAUGGCGCGAUAGCGCCAAUGUUGUCAGCUAUGACACGCAAAACGUGUGCUCCGUUGAAUGGAGUUUAUCAUG [A39C G81A C99U C103G A107G C125U],≤ -4.2
11,GGCUCUUGUCGAUCUAACAAAAAAGACAAAUCUGCCACAAAGCUUGAGAGCAUCUUCGGAUGCAGAGGCGGCAGCUUUCGGUGGCGAGAUAGCGCCAACGUUCUCUACUAUGACACGCAAAACGCGUGCUCCGUUGAAUGGAGUUUAUCAUG [A3C C8G C76U C87A A106U],≤ -4.2
12,GGAUCUUCUCGAUCUAGGAAAAAAGACAAAGCUGCCACAAAGCUUGAGAGCAUCUUCGGAUGCAGAGACGGCAGCCUUCGGUGGCGUGAUAGCGCCAACGUUCUCAACUAUGACACGCAAAACGCGUGCUCCUUUGAAUGGAGUUUAUCAUG [A17G C18G U31G G68A C87U G133U],≤ -4.2
13,GGAUCUUCUCGAUCUAACAAAAAAGACAAAUCUGCCACAAAGCUUGAGAGCAUCUUUGGAUGCAGAGGCGGCAGCCUUCGGUGGCGCGAUAGUGCCAACGUUCUCAACUAUGACCCGCAAAACGCGUGCUCCGUUGAAUGGCGUUUUUCAUG [C57U C93U A115C A142C A147U],≤ -4.2
14,GGAUCUUCUCGAUCUAACAAAAAAGACAAAUCUGCCACAAAGCUUGCGAACAUCUUCGGAUGCAGAGGCGGCAGCCUUCGGUGGCGCGAUAGCGCCAACGUCCUCAACUAUGACACGCAAAACGCGUGCUCCGUUGAAUGGAGUUAAUCAUG [A47C G50A U102C U146A],-2.55
15,GGAUCUUCUCGAUCUAACAAAAGAGACAAAUCUGCCAUAAAGCUUGAGAGCAUCUUCGGAAGCAGAGGCGGCAGCCUUCGGUGGCGCGAUAGCGCCAACGUUCUCAACUAUGACACGCAAAACGCGUGCUCCGUUGAAUGGAGUUUAUCAUG [A23G C38U U61A],≤ -4.2
16,GGAUCUUCUCGAUGUAACAAAAAAGACACAUCUGCCACAAAGCUUGAGAGCAACUUCGGAUGCAGAGGCGGCAGCCUUCGGUGGCGCGAUAGCGUCAACGUUCUCAACUAUGAUACGCAAAACGCGUGCUCCGUUGAAUAGAGUUUAUCAUG [C14G A29C U53A C95U C114U G140A],-3.68
17,GGAUCUUCUCGAUUUAACAAAAAAGACAAAUCUGCCACAAAGCUUGAGAGCAUCUUCGGAUGCAGAGGCGGCAGCCUUCGGUGGCGCGAUAGCGCCAACGUUCUGAACUAUGACACGCAAAACGCGUGCUCCGUUGAAUGGAGUUUAUCAUG [C14U C105G],-3.25
18,GGAUCUUCUCGAUCUAACAAAAAAGACAAAUCUGCCACAAAUCUUGAGAGCAUCUACGGAUGCAGAGGCGGCAGCCUUCGGUGGCGCGAUAGCGCCAACGUUCUCAACUAUGACACGCAUAACGCGUGCUCCGUUGAAUGGCGUUUAUCAUG [G42U U56A A120U A142C],≤ -4.2
19,GGAUCUUCUCGAUCUAACAAAAAAGACAAAUCUGCCACAAGGCUUGAGAGCAUCUUCGGGUGCAGAGGCGGCAGCCUUCGGUGGCGCGAUAGCGCCUACGUUCUCAACUAUGACACGCAAAACGCGUGCUCCGUUGAAUGGAGUUUAUCAUG [A41G A60G A97U],-0.347
